Assays:
[1] = Accumulation of RGD-Dox at various time points in tumor tissues; assay type: in vivo, mice; details: for tissue level at time molar at 0.5 h / tissue level at time molar at 1 h / tissue level at time molar at 2 h / tissue level at time molar at 4 h / tissue level at time molar at 6 h: BALB/c nude, mouse, tumor tissue, iv, 3.67 umol⸱/kg
Procedure: 13. In vivo anticancer efficacy
13.1 The accumulation of RGD-Dox at various time points in tumor tissues When the tumor volume reached approximately 400 mm3, five mice in each group received an i.v. injection of 3.67 μmol⸱kg-1 RGD-Dox. After various time intervals, the mice were sacrificed, and tumor tissues were dissected. About 0.5 to 1 g of tissue was ground into a homogenate, and proteins were precipitated by the adding two volumes of acetonitrile (1 mL). After centrifugation, the supernatant was removed, concentrated to 100 µL, and 20 µL was used for HPLC–MS analysis. The RGD-Dox concentration in the sample was determined from a standard curve of the peak area of the characteristic absorption of RGD-Dox at 520 nm. […]

[2] = tested on: LX2 cells; assay: Cell uptake by fluorescence imaging, LX2; assay type: cell-based, Human; details: αvβ3-negative, 10 μM, 2 h
[3] = Critical micelle concentration of peptide conjugates (Nile Red); assay type: physicochemical; details: PBS (5% DMSO), Nile Red 1.0 μM, room temperature overnight; intersection of tangents
Procedure: The second-order rate constant for the labeling reactions between tetrazine 1 and Cys was determined at 25 °C in PB (30% MeCN, 20 mM, pH 8.0) under second-order conditions using a 6000+ (Quawell) UV-Vis spectrophotometer. The concentrations of cysteine and tetrazine were identical. The specific difference in absorption wavelength (300 nm) between 1 and Cys-1 was measured over time. The second-order rate constant k2 was calculated from the slope of a plot of (1/c – 1/c0) versus time.
5. Competitive labeling reaction with other nucleophilic amino acids
For the competitive labeling experiment, 10 equiv. (2 mM) of N-Fmoc-Lys, N-Fmoc-Arg, Ser, Tyr, and 1.3 equiv. […] The resulting solution was maintained at 25 °C and monitored by LC –MS. […]
Each voTz analogue (1.1 equiv.) was added to a 0.25 mL vial containing solvent. […] The chromatogram peak areas of all relevant Cys -containing species were integrated, and the yiel d was determined using the following equation: Yield (%) = Iproduct/(Istarting + Iproduct + Ioxidation + Iside product) × 100, where Istarting, Iproduct, Ioxidation, and Iside product respectively represent the average ion counts of remaining starting material, product, oxidized starting material and any side product, if present 2. […]
DLS analyses and particle zeta potential values were determined using a Nano ZS ZEN 3690 instrument (Malvern […]

[4] = tested on: B16F10 cells; assay: Cellular uptake of RGD-Dox over various time intervals using flow cytometry; assay type: cell-based, Mouse

## COc1cccc2c1C(=O)c1c(O)c3c(c(O)c1C2=O)C[C@@](O)(C(=O)CO)C[C@@H]3O[C@H]1C[C@H](NC(=O)OCc2nnc(CCSC[C@@H]3NC(=O)[C@@H](Cc4ccc(O)cc4)NC(=O)[C@H](CC(=O)O)NC(=O)CNC(=O)[C@H](CCCNC(=N)N)NC3=O)nn2)[C@H](O)[C@H](C)O1 [RGD-Dox]
[1]; 3.67 μmol·kg^−1 i.v., 0-6 hours, HPLC–MS 520 nm, n = 5
  accumulation at the tumor tissue over time: continuous increase in the accumulation of RGD-Dox at the tumor site within the first 0-2 hours, followed by a gradual decrease
[1]; 6 h, Data 3
  accumulation of RGD-Dox in tumor tissues: 0.09596 nmol/g
[1]; Data 1
  tissue level at time molar at 0.5 h: 0.253 nmol/g
  tissue level at time molar at 1 h: 0.311 nmol/g
  tissue level at time molar at 2 h: 0.249 nmol/g
  tissue level at time molar at 4 h: 0.296 nmol/g
[1]; Data 2
  tissue level at time molar at 0.5 h: 0.122 nmol/g
  tissue level at time molar at 1 h: 0.321 nmol/g
  tissue level at time molar at 2 h: 0.239 nmol/g
  tissue level at time molar at 4 h: 0.245 nmol/g
[1]; Data 3
  tissue level at time molar at 0.5 h: 0.145 nmol/g
  tissue level at time molar at 1 h: 0.226 nmol/g
  tissue level at time molar at 2 h: 0.408 nmol/g
  tissue level at time molar at 4 h: 0.274 nmol/g
[1]; Data 4
  tissue level at time molar at 0.5 h: 0.161 nmol/g
  tissue level at time molar at 1 h: 0.407 nmol/g
  tissue level at time molar at 2 h: 0.321 nmol/g
  tissue level at time molar at 4 h: 0.16 nmol/g
[1]; Data 5
  tissue level at time molar at 0.5 h: 0.185 nmol/g
  tissue level at time molar at 1 h: 0.29 nmol/g
  tissue level at time molar at 2 h: 0.3 nmol/g
  tissue level at time molar at 4 h: 0.217 nmol/g
[1]; 6 h, Data 1
  tissue level at time molar at 6 h: 0.0949 nmol/g
[1]; 6 h, Data 2
  tissue level at time molar at 6 h: 0.0855 nmol/g
[1]; 6 h, Data 4
  tissue level at time molar at 6 h: 0.0867 nmol/g
[1]; 6 h, Data 5
  tissue level at time molar at 6 h: 0.129 nmol/g
[2]
  cellular fluorescence (uptake) in LX2 cells: negligible fluorescence
[3]
  critical micellar concentration (CMC): 3.31 µM
[4]; 0.5 h, Data 2
  cellular uptake of RGD-Dox (flow cytometry): 4811
[4]; 1 h, Data 1
  cellular uptake of RGD-Dox (flow cytometry): 7075
[4]; 1 h, Data 2
  cellular uptake of RGD-Dox (flow cytometry): 6214
[4]; 2 h, Data 2
  cellular uptake of RGD-Dox (flow cytometry): 11247
[4]; 2 h, Data 3
  cellular uptake of RGD-Dox (flow cytometry): 9887
[4]; 3 h, Data 1
  cellular uptake of RGD-Dox (flow cytometry): 12006
[4]; 3 h, Data 2
  cellular uptake of RGD-Dox (flow cytometry): 12578
[4]; 4 h, Data 2
  cellular uptake of RGD-Dox (flow cytometry): 13144

— article PMC10987521, “An all-in-one tetrazine reagent for cysteine-selective labeling and bioorthogonal activable prodrug construction” (Nature Communications, 2024)
